Data on two variants can be found in article PMC7275062.

First the molecules themselves.
B1: Plasmodesmata-located protein 5 (PDLP5), EGFP or mCherry fusion [Arabidopsis thaliana] / Plasmodesmata-located protein 5 (PDLP5), EGFP or mCherry fusion [Arabidopsis thaliana] (parent)
chain 1: SPTDNYIYAVCSPAKFSPSSGYETNLNSLLSSFVTSTAQTRYANFTVPTGKPEPTVTVYGIYQCRGDLDPTACSTCVSSAVAQVGALCSNSYSGFLQMENCLIRYDNKSFLGVQDKTLILNKCGQPMEFNDQDALTKASDVIGSLGTGDGSYRTGGNGNVQGVAQCSGDLSTSQCQDCLSDAIGRLKSDCGMAQGGYVYLSKCYARFSVGGSHARQTPGPNFGHEGEKGNKDDNGVGKTLAIIIGIVTLIILLVVFLAFVGKCCRKLQDEKWCK
chain 2: B1 chain 1
B2: Plasmodesmata-located protein 5 (PDLP5), EGFP or mCherry fusion [Arabidopsis thaliana] / itself (parent)
chain: B1 chain 1

The first assay covers variants of B1. The assay is described as follows: FRET. The settings on record: with Plasmodesmata-located protein 5 (PDLP5), at plasmodesmata, PDLP5-EGFP donor and PDLP5VV-mCherry acceptor, n=21, parent: 20, read off a plot.
Regarding chain 1 SPTDNYIYAVCSPAKFSPSSGYETNLNSLLSSFVTSTAQTRYANFTVPTGKPEPTVTVYGIYQCRGDLDPTACSTCVSSAVAQVGALCSNSYSGFLQMENCLIRYDNKSFLGVQDKTLILNKCGQPMEFNDQDALTKASDVIGSLGTGDGSYRTGGNGNVQGVAQCSGDLSTSQCQDCLSDAIGRLKSDCGMAQGGYVYLSKCYARFSVGGSHARQTPGPNFGHEGEKGNKDDNGVGKTLVIIIVIVTLIILLVVFLAFVGKCCRKLQDEKWCK [chain 1 A241V G245V], the response (% FRET efficiency) was found to be 16.

Staying with this assay, now noted: with Plasmodesmata-located protein 5 (PDLP5), at plasmodesmata, PDLP5VV-EGFP donor and PDLP5-mCherry acceptor, n=15, parent: 20, read off a plot.
With chain 1 SPTDNYIYAVCSPAKFSPSSGYETNLNSLLSSFVTSTAQTRYANFTVPTGKPEPTVTVYGIYQCRGDLDPTACSTCVSSAVAQVGALCSNSYSGFLQMENCLIRYDNKSFLGVQDKTLILNKCGQPMEFNDQDALTKASDVIGSLGTGDGSYRTGGNGNVQGVAQCSGDLSTSQCQDCLSDAIGRLKSDCGMAQGGYVYLSKCYARFSVGGSHARQTPGPNFGHEGEKGNKDDNGVGKTLVIIIVIVTLIILLVVFLAFVGKCCRKLQDEKWCK [chain 1 A241V G245V], the response (% FRET efficiency) is 19.

The variants in the next assay derive from B2. The assay is described as follows: FRET. The settings on record: with itself; at plasmodesmata; EGFP-fused donor and mCherry-fused acceptor; n=12; parent: 20; read off a plot.
As to SPTDNYIYAVCSPAKFSPSSGYETNLNSLLSSFVTSTAQTRYANFTVPTGKPEPTVTVYGIYQCRGDLDPTACSTCVSSAVAQVGALCSNSYSGFLQMENCLIRYDNKSFLGVQDKTLILNKCGQPMEFNDQDALTKASDVIGSLGTGDGSYRTGGNGNVQGVAQCSGDLSTSQCQDCLSDAIGRLKSDCGMAQGGYVYLSKCYARFSVGGSHARQTPGPNFGHEGEKGNKDDNGVGKTLVIIIVIVTLIILLVVFLAFVGKCCRKLQDEKWCK [chain 1 A241V G245V], the response (% FRET efficiency) came out at 17.
